assay: yeast display, Sf9 membrane polyspecificity reagent, FACS + sequencing; frameworks hold sequencing errors
Procedure, shortened: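 Using colony PCR, genes from sorted yeast display clones were amplified, then sequenced on MiSeq at 2 × 250 and filtered by CDR length. The clones had been stained with 10% biotinylated, detergent-solubilized Sf9 membrane reagent for 1 hour at 4 °C and sorted by FACS into low and high (top ~1%) gates on anti-HA and streptavidin fluorescence. Polyreactivity labels come from the gate of origin.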

Sequence | polyreactivity (PSR sort gate)
QVQLVESGGGLVQAGGSHRLSCAASGRTFWYNAMGWYRQAPGKERELVAAITSGDSTNYADSVKGRFTISRDNAKNTVYLQMNSLKPEVTAAYYCAAEGRPNWYYWAEGYYWGQGTQVTVSS | high polyreactivity
QVQLVESGGGLVQAGGSLRLSWAASGNIFLYYAMGWYRQAPGKERELVPDIDSSGASTYYADSVKGRFTISRDNAKNTVYLQMNSLKPEDTAVYYCAAEFHWWYAGDDYGYWGQGTQVTVSS | low polyreactivity
QVQLVESGGGLVQAGGSLRLSCAASGFIFKRYAMGWYRQAPGKVRELGAAITGSGGSTYYADSVKGRFTISRDNAKNTVYLQMNSLKPEDTAVYYCARGNGGSLDYWGQGTQVTVSS | high polyreactivity
QVQLVESGGGLVQAGGSLRLSCAASGSIFRWYAMGWYRQAPGKERELVAGISSTGGSTYYADSVKGRFTISRDNAKNTVYLQMNSLKPEDTAVYYCAVVSYPSAFRRYNYWGQGTQVTVSS | high polyreactivity
QVQLVESGGGLVQAGGSLRLSCAASGFTFTHYAMGWYRQAPGKERELVAAITDTGGGTYYADSVKGRFTISRDTAKNTVYLQMNSLKPEDTAVYYCAKPTSYRGYYSWGQGTQVTVSS | high polyreactivity
QVQLVESGGGLVQAGGSLRLSCAASGSTFGFYAMGWYRQAPGKERELVAAITSGDITYADSVKGRFTISRDNAKNTVYLQMNSLKPEDTAVYYCAASGPYSYDWGQGTQVTVSS | low polyreactivity
QVQLVESGGGLVQAGGSLRLSCAASGSIFRYYAKGWYRHAPGKERELVAVISRSGTRTYYADSVKGRFTISRDNAKNTVYLQMNSLKPEDTAVYYCAAKDERRSFGMGYWGQGTQVTVSS | high polyreactivity
QVQLVESGGGLVQAGGRLRLSCAASGRTMGWYRQAPRKERELVAAITSGGGSTYYADSVKWRFTISRDNAKNTVYLQMNSLKPEDTAVYYCARTTIAQLHSIVAPHDYWGQGTQVNVSS | low polyreactivity
QVQLVESGGGLVQAGGRLRLSCAATGSTFEVYAMGWYRQAPGKERELVAVINVSDGSTYYADSVKGRFTISRDNAKNTVYLQMNSLKPEDTAVYLCAAYLYNRPYQLTGYYDGYGYWGQGTQVTVSS | low polyreactivity
QVQLVESGGGLVQAGGSLRLSCAASGSTFQTYVMGWYRQAPGKERELVAAISSGGSTNYADSVKGRFTISRDNAKNTVYLQMNSLKPEDTAVYYCAKRWPYFRRGKDGYWGQGTQVTVSS | low polyreactivity
QVQLVESGGGLVQAGGSLRLSCAASGFTFWAYAMGWYRQAPGKERELVAAISGSGGNTYYADSVKGRFTISRDNAKNTVYLQMNSLKPEDTAVYYCAVEDAGQGGDYWGQGTQVTVSS | low polyreactivity
QVQLVESGGGLVQAGGSLRVSCAASGRIFYPYAMGWYRQAPGKERELVAAIRRSGVDTYYADSVKGRFTISRDNAKNTVYLQMNSLKPEDTAVYYCDADPYWFFPHYDSWGQGTQVTVSS | low polyreactivity
QVQLVESGGGLVQAGGSLRLSCAASGSTFRYYAMGWYRQAPGKERELVAAITYSGGRTYYADSVKGRFTISRDNAKNTVYLQMNSLKPEDTAVYYCAASFRAWSGNYWGQGTQVTVSA | high polyreactivity
QVQLVESGGGLVQAGGSLRLSCAASGRIFGRNAMGWYRQAPGKERELVASITSGGGTNYADSVKGRFTISRDNAKNTVYLQMNCLKPEDTAVYYCAAKRHLEGYSGSIGRYYYWGQGTQVTVSS | low polyreactivity
QVQLEESGGGLVQAGGSLRLSCAASGGTFYAYAMGWYRQAPGKERELVAAITRSGGRTYYADSVKGRFTISRDNAKNTVYLQMNSLKPEDTAVYYCAADPHHYSGLDYWGQGTQVTVSS | low polyreactivity
QVQLVESGGGLVQAGGSLRLSCAASGSTFLYYAKGWSRQAPGKERELVAAISGSGGSTYYADSVKGRFTISRDNAKNTVYLQMNSLKPEDTAVYYCNAVARRHGLGPYDYWGQGTQVTVSS | high polyreactivity
QVQLVESGGGLVQAGGSLRLSCAASGFTFRYYAMGWYRQAPGKERELVASINWSGGSTYYADSVKGRFTISRDNAKNTVYFQMNSLKPEDTAVYYCAADSIWGHYFARFDYWVQGTQVTVSS | high polyreactivity
QVQLVESGGGLVQAGGSLRLSCAASGSTFGNNAMGWYRQAPGKERELVASISWSSGRTYYADSVKGRFTISRDNAKNTVYLQMNSLKREDTAVYYCAAPLPVDVVWDRSAEVRYDYWGQGTQVTVSS | low polyreactivity
QVQLEESGGGLVQAGGSLRLSCAASGSTFSTYSMAWYRHAPGKERELVARITRSDTGTYYADSVKGRFTISRDYAKNTVYLQLNSLKPEDTAVYDCAADGWYDDSGWDYGYDYWGQGTQVTVSS | low polyreactivity
QVQLVESVGGLDQAGGRLRLSCAASGFTIRPYVRRAYRQAPGTERELVAGISTGGSTYYADSVKGRFTISRDNAQNTVYLQMNRLKPEDTAVYDCAKRGKQYRKMNYWGQGTQVTVSS | high polyreactivity
QVQLVESGGGLVQAGGSLRLSCAASGRIFGNYAMGWYRQAPGKERELVASISRRGGSTYYADSVKGRFTISRDNAKNTVYLQMIRLKPEDTAVYYCATLRGRLRFGYDYWGQGTQVTVSS | high polyreactivity

From the nanobody polyreactivity screen of Harvey et al. (2022)
